From paper PMC7335327

Columns and labels:
[1] = target: DnaB^F102C (Escherichia coli K12) (UniProt P0ACB0)
DnaB (Escherichia coli) = DnaB (Escherichia coli) (UniProt P0ACB0); conditions: cited from earlier work
[2] = target: biotinylated clamp loader complex ^bioχψτ3δδ’ (Escherichia coli K12) (UniProt P28905); assay: SPR
[3] = target: DnaB^F102C (Escherichia coli K12) (UniProt P0ACB0); assay: cross-linking
[4] = target: DnaB helicase, wild type (DnaB^wt) (Escherichia coli K12) (UniProt P0ACB0)

Substance: DnaGC, C-terminal helicase-binding domain of DnaG primase (domain or fragment)
- fold less efficient interaction than with wild-type DnaB [1]: 200 fold

Substance: DnaG (from UniProt P0ABS5)
- Kd (DnaB (Escherichia coli)): 2.8 µM

Substance: DnaB^wt•DnaGC complex (from UniProt P0ACB0 1-471)
- Kd [2]: 0.0026 µM

Substance: DnaGC^R568C/C492L (domain or fragment)
- disulfide crosslinking efficiency [3]: 100%
- fold weaker interaction than wild-type DnaGC [4]: 30 fold
